Key:
[1] = target: T1, human leukocyte antigen-DR (HLA-DR) on human lymphoma and leukemia cell lines and human lymphocytes (human); assay: indirect flow cytometry, FITC-GAH Fc, Namalwa cells; none 2.6
[2] = target: T1, human leukocyte antigen-DR (HLA-DR) on …; assay: indirect flow cytometry, FITC-GAH Fc, WSU-FSCCL cells; none 2.7
[3] = target: T1, human leukocyte antigen-DR (HLA-DR) on …; assay: indirect flow cytometry, FITC-GAH Fc, Ramos cells; none 3.1
[4] = target: T1, human leukocyte antigen-DR (HLA-DR) on …; assay: indirect FACS, FITC-GAH Fc, Daudi cells; none 3.1
[5] = target: T1, human leukocyte antigen-DR (HLA-DR) on …; assay: indirect flow cytometry, FITC-GAH Fc, SU-DHL-6 cells; none 4.6
[6] = target: T1, human leukocyte antigen-DR (HLA-DR) on …; assay: indirect flow cytometry, FITC-GAH Fc, Raji cells; none 6.9
[7] = target: T1, human leukocyte antigen-DR (HLA-DR) on …; assay: indirect FACS, FITC-GAH Fc, Namalwa cells; none 2.5
[8] = target: T1, human leukocyte antigen-DR (HLA-DR) on …; assay: indirect FACS, FITC-GAH Fc, WSU-FSCCL cells; none 2.6
[9] = target: T1, human leukocyte antigen-DR (HLA-DR) on …; assay: indirect FACS, FITC-GAH Fc, Raji cells; none 6.8
[10] = target: T1, human leukocyte antigen-DR (HLA-DR) on …; assay: indirect FACS, FITC-GAH Fc, SU-DHL-6 cells; none 4.6
[11] = target: T1, human leukocyte antigen-DR (HLA-DR) on …; assay: indirect flow cytometry, FITC-GAH Fc, RL cells; none 2.4
[12] = target: T1, human leukocyte antigen-DR (HLA-DR) on …; assay: indirect flow cytometry, FITC-GAH Fc, Daudi cells; none 3.2
[13] = target: T1, human leukocyte antigen-DR (HLA-DR) on …; assay: indirect flow cytometry, Namalwa cells, FITC-GAH; none 2.52
[14] = target: T1, human leukocyte antigen-DR (HLA-DR) on …; assay: indirect FACS, FITC-GAH Fc, Ramos cells; none 3.1

B1: hL243γ4P (humanized L243, IgG4/K isotype with hinge mutation Ser241Pro) (antibody, V domains shown)
VH: QVQLQQSGSELKKPGASVKVSCKASGFTFTNYGMNWVKQAPGQGLKWMGWINTYTREPTYADDFKGRFAFSLDTSVSTAYLQISSLKADDTAVYFCARDITAVVPTGFDYWGQGSLVTVSS
VL: DIQLTQSPSSLSASVGDRVTITCRASENIYSNLAWYRQKPGKAPKLLVFAASNLADGVPSRFSGSGSGTDYTFTISSLQPEDIATYYCQHFWTTPWAFGGGTKLQIKR
notes: Same V domains as hL243; human γ4 constant region with Ser241Pro (Kabat numbering) in the hinge, human kappa; also called hL243 (IgG4 isotype)
**Q.** With B1 as the binder, how does the “Geometric Mean Fluorescence” value [1] read?
**A.** 261

**Q.** And the “Geometric Mean Fluorescence” value [2]?
**A.** 467

**Q.** What about the “Geometric Mean Fluorescence” value [3] of the same binder?
**A.** 278

**Q.** And the “Geometric Mean Fluorescence” value [4]?
**A.** 937

**Q.** And the “Geometric Mean Fluorescence” value [5]?
**A.** 572

**Q.** And the “Geometric Mean Fluorescence” value [6]?
**A.** 972

**Q.** And the “Geometric Mean Fluorescence” value [7]?
**A.** 261

**Q.** What about the “Geometric Mean Fluorescence” value [8] of the same binder?
**A.** 467

**Q.** And the “Geometric Mean Fluorescence” value [9]?
**A.** 972

**Q.** What about the “Geometric Mean Fluorescence” value [10] of the same binder?
**A.** 572

**Q.** And the “Geometric Mean Fluorescence” value [11]?
**A.** 112

**Q.** And the “Geometric Mean Fluorescence” value [12]?
**A.** 937

**Q.** And the “GEO MEAN Fluorescence” value [13]?
**A.** 324

**Q.** And the “Geometric Mean Fluorescence” value [14]?
**A.** 278
